B1: RIPK4 (parent)
chain: VIDLFDEQGLSALHLAAQGRHAQT

Variants of: B1
Experiment: protein stability index of a GFP-peptide fusion (GPS, HEK-293T) (PSI 1-6); higher = more stable
Settings: c terminus: a fixed tail appended
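Note: lentivirally expressed fusions sorted by FACS into six bins by GFP to DsRed ratio, PSI derived from sequencing read proportions per bin multiplied by bin number.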

Point of comparison: VIDLFDEQGLSALHLAAQIRHAQT, protein stability index 1.42. Against it:
- VIDLFDEQGLSALHLAAQGCHAQT — higher, 2.6
- VIDLFDEQGLSALHLAAQGDHAQT — higher, 3.82
- VIDLFDEQGLSALHLAAQGKHAQT — higher, 3.53
- VIDLFDEQGLSALHLAAQGVHAQT — higher, 2.54
- VIDLFDEQGLSALHLAAQGFHAQT — higher, 2.38
- VIDLFDEQGLSALHLAAQGYHAQT — higher, 2.06
- VIDLFDEQGLSALHLAAQGIHAQT — higher, 2.46
- VIDLFDEQGLSALHLAAQGMHAQT — higher, 2.58
- VIDLFDEQGLSALHLAAQGQHAQT — higher, 3.29
- VIDLFDEQGLSALHLAAQGSHAQT — higher, 3.26
- VIDLFDEQGLSALHLAAQGNHAQT — higher, 3.02
- VIDLFDEQGLSALHLAAQGWHAQT — higher, 2.02
- VIDLFDEQGLSALHLAAQGEHAQT — higher, 3.7
- VIDLFDEQGLSALHLAAQGPHAQT — higher, 2.66
- VIDLFDEQGLSALHLAAQGGHAQT — higher, 2.94
- VIDLFDEQGLSALHLAAQGAHAQT — higher, 2.66
- VIDLFDEQGLSALHLAAQGHHAQT — higher, 2.8
- VIDLFDEQGLSALHLAAQGTHAQT — higher, 3.14
- VIDLFDEQGLSALHLAAQGLHAQT — higher, 2.34
- VIDLFDEQGLSALCLAAQGRHAQT — higher, 2.1
- VIDLFDEQGLSALDLAAQGRHAQT — higher, 3.6
- VIDLFDEQGLSALVLAAQGRHAQT — higher, 2.28
- VIDLFDEQGLSALGLAAQGRHAQT — higher, 2.6
- VIDLFDEQGLSALKLAAQGRHAQT — higher, 2.8
- VIDLFDEQGLSALTLAAQGRHAQT — higher, 2.95
- VIDLFDEQGLSALPLAAQGRHAQT — higher, 3.54
- VIDLFDEQGLSALRLAAQGRHAQT — higher, 3.25
- VIDLFDEQGLSALALAAQGRHAQT — higher, 2.49
- VIDLFDEQGLSALNLAAQGRHAQT — higher, 3.5
- VIDLFDEQGLSALFLAAQGRHAQT — higher, 1.82
- VIDLFDEQGLSALWLAAQGRHAQT — higher, 1.9
- VIDLFDEQGLSALQLAAQGRHAQT — higher, 3.2
- VIDLFDEQGLSALLLAAQGRHAQT — higher, 2.33
- VIDLFDEQGLSALILAAQGRHAQT — higher, 1.88
- VIDLFDEQGLSALELAAQGRHAQT — higher, 4.04
- VIDLFDEQGLSALMLAAQGRHAQT — higher, 1.89
- VIDLFDEQGLSALSLAAQGRHAQT — higher, 2.55
- VIDLFDEQGLSALYLAAQGRHAQT — higher, 2.09
- VIDLFDEQGLSALHTAAQGRHAQT — higher, 3.51
- VIDLFDEQGLSALHSAAQGRHAQT — higher, 4.01
- VIDLFDEQGLSALHHAAQGRHAQT — higher, 3.3
- VIDLFDEQGLSALHFAAQGRHAQT — higher, 2.41
- VIDLFDEQGLSALHWAAQGRHAQT — higher, 2.26
- VIDLFDEQGLSALHGAAQGRHAQT — higher, 3.74
- VIDLFDEQGLSALHPAAQGRHAQT — higher, 3.37
- VIDLFDEQGLSALHIAAQGRHAQT — higher, 2.81
- VIDLFDEQGLSALHYAAQGRHAQT — higher, 2.32
- VIDLFDEQGLSALHRAAQGRHAQT — higher, 2.94
- VIDLFDEQGLSALHNAAQGRHAQT — higher, 3.8
- VIDLFDEQGLSALHDAAQGRHAQT — higher, 3.39
- VIDLFDEQGLSALHMAAQGRHAQT — higher, 3.09
- VIDLFDEQGLSALHQAAQGRHAQT — higher, 3.3
- VIDLFDEQGLSALHKAAQGRHAQT — higher, 3.39
- VIDLFDEQGLSALHEAAQGRHAQT — higher, 3.47
- VIDLFDEQGLSALHAAAQGRHAQT — higher, 3.31
- VIDLFDEQGLSALHCAAQGRHAQT — higher, 2.74
- VIDLFDEQGLSALHVAAQGRHAQT — higher, 3.07
- VIDLFDEQGLSALHLAAQYRHAQT — higher, 2.66
- VIDLFDEQGLSALHLAAQDRHAQT — higher, 3.55
- VIDLFDEQGLSALHLAAQHRHAQT — higher, 2.59
- VIDLFDEQGLSALHLAAQVRHAQT — higher, 1.71
- VIDLFDEQGLSALHLAAQWRHAQT — higher, 1.99
- VIDLFDEQGLSALHLAAQKRHAQT — higher, 3.13
- VIDLFDEQGLSALHLAAQSRHAQT — higher, 2.99
- VIDLFDEQGLSALHLAAQQRHAQT — higher, 3.07
- VIDLFDEQGLSALHLAAQCRHAQT — higher, 2.25
- VIDLFDEQGLSALHLAAQERHAQT — higher, 3.37
- VIDLFDEQGLSALHLAAQARHAQT — higher, 2.57
- VIDLFDEQGLSALHLAAQRRHAQT — higher, 2.44
- VIDLFDEQGLSALHLAAQNRHAQT — higher, 3.03
- VIDLFDEQGLSALHLAAQLRHAQT — higher, 1.63
- VIDLFDEQGLSALHLAAQTRHAQT — higher, 2.37
- VIDLFDEQGLSALHLAAQMRHAQT — higher, 1.64
- VIDLFDEQGLSALHLAAQFRHAQT — higher, 1.91
- VIDLFDEQGLSALHLAAQPRHAQT — higher, 2.76
- VIDLFDEQGLSAMHLAAQGRHAQT — higher, 3.66
- VIDLFDEQGLSANHLAAQGRHAQT — higher, 3.3
- VIDLFDEQGLSADHLAAQGRHAQT — higher, 4.04
- VIDLFDEQGLSAKHLAAQGRHAQT — higher, 3.61
- VIDLFDEQGLSAFHLAAQGRHAQT — higher, 2.87
- VIDLFDEQGLSAWHLAAQGRHAQT — higher, 2.82
- VIDLFDEQGLSAYHLAAQGRHAQT — higher, 2.53
- VIDLFDEQGLSAQHLAAQGRHAQT — higher, 3.8
- VIDLFDEQGLSASHLAAQGRHAQT — higher, 3.58
- VIDLFDEQGLSAIHLAAQGRHAQT — higher, 2.75
- VIDLFDEQGLSAPHLAAQGRHAQT — higher, 4.04
- VIDLFDEQGLSAEHLAAQGRHAQT — higher, 4.17
- VIDLFDEQGLSATHLAAQGRHAQT — higher, 3.56
- VIDLFDEQGLSARHLAAQGRHAQT — higher, 3.31
- VIDLFDEQGLSAVHLAAQGRHAQT — higher, 3.06
- VIDLFDEQGLSAHHLAAQGRHAQT — higher, 3.48
- VIDLFDEQGLSAGHLAAQGRHAQT — higher, 3.87
- VIDLFDEQGLSALHLTAQGRHAQT — higher, 3.11
- VIDLFDEQGLSALHLEAQGRHAQT — higher, 3.2
- VIDLFDEQGLSALHLWAQGRHAQT — higher, 1.51
- VIDLFDEQGLSALHLYAQGRHAQT — higher, 2.08
- VIDLFDEQGLSALHLCAQGRHAQT — higher, 2.59
- VIDLFDEQGLSALHLVAQGRHAQT — higher, 2.01
- VIDLFDEQGLSALHLLAQGRHAQT — higher, 1.85
- VIDLFDEQGLSALHLPAQGRHAQT — higher, 3.42
- VIDLFDEQGLSALHLFAQGRHAQT — higher, 1.99
- VIDLFDEQGLSALHLIAQGRHAQT — higher, 2.35
- VIDLFDEQGLSALHLMAQGRHAQT — higher, 2.4
- VIDLFDEQGLSALHLQAQGRHAQT — higher, 2.77
- VIDLFDEQGLSALHLDAQGRHAQT — higher, 3.55
- VIDLFDEQGLSALHLHAQGRHAQT — higher, 2.83
- VIDLFDEQGLSALHLGAQGRHAQT — higher, 3.27
- VIDLFDEQGLSALHLKAQGRHAQT — higher, 2.98
- VIDLFDEQGLSALHLRAQGRHAQT — higher, 2.42
- VIDLFDEQGLSALHLSAQGRHAQT — higher, 3.15
- VIDLFDEQGLSALHLNAQGRHAQT — higher, 3.46
- VIDLFDEQGLSALHLAGQGRHAQT — higher, 2.72
- VIDLFDEQGLSALHLAYQGRHAQT — higher, 2.49
- VIDLFDEQGLSALHLAPQGRHAQT — higher, 2.82
- VIDLFDEQGLSALHLAWQGRHAQT — higher, 1.75
- VIDLFDEQGLSALHLAMQGRHAQT — higher, 1.99
- VIDLFDEQGLSALHLAQQGRHAQT — higher, 2.98
- VIDLFDEQGLSALHLARQGRHAQT — higher, 3.17
- VIDLFDEQGLSALHLATQGRHAQT — higher, 2.7
- VIDLFDEQGLSALHLALQGRHAQT — higher, 1.98
- VIDLFDEQGLSALHLACQGRHAQT — higher, 2.54
- VIDLFDEQGLSALHLAVQGRHAQT — higher, 2.92
- VIDLFDEQGLSALHLADQGRHAQT — higher, 3.84
- VIDLFDEQGLSALHLAHQGRHAQT — higher, 2.72
- VIDLFDEQGLSALHLAIQGRHAQT — higher, 2.69
- VIDLFDEQGLSALHLASQGRHAQT — higher, 2.83
- VIDLFDEQGLSALHLAFQGRHAQT — higher, 2.47
- VIDLFDEQGLSALHLANQGRHAQT — higher, 3.13
- VIDLFDEQGLSALHLAKQGRHAQT — higher, 2.8
- VIDLFDEQGLSALHLAEQGRHAQT — higher, 3.54
- VIDLFDEQGLSALHLAAQGRLAQT — higher, 2.66
- VIDLFDEQGLSALHLAAQGRYAQT — higher, 2.47
- VIDLFDEQGLSALHLAAQGRRAQT — higher, 2.24
- VIDLFDEQGLSALHLAAQGRVAQT — higher, 2.72
- VIDLFDEQGLSALHLAAQGRMAQT — higher, 2.56
- VIDLFDEQGLSALHLAAQGRWAQT — higher, 1.9
- VIDLFDEQGLSALHLAAQGRDAQT — higher, 3.18
- VIDLFDEQGLSALHLAAQGRQAQT — higher, 3.23
- VIDLFDEQGLSALHLAAQGRFAQT — higher, 2.22
- VIDLFDEQGLSALHLAAQGRGAQT — higher, 2.86
- VIDLFDEQGLSALHLAAQGRAAQT — higher, 2.41
- VIDLFDEQGLSALHLAAQGRPAQT — higher, 3.01
- VIDLFDEQGLSALHLAAQGREAQT — higher, 3.32
- VIDLFDEQGLSALHLAAQGRCAQT — higher, 2.89
- VIDLFDEQGLSALHLAAQGRIAQT — higher, 2.28
- VIDLFDEQGLSALHLAAQGRTAQT — higher, 3.07
- VIDLFDEQGLSALHLAAQGRKAQT — higher, 3.41
- VIDLFDEQGLSALHLAAQGRSAQT — higher, 2.76
- VIDLFDEQGLSALHLAAQGRNAQT — higher, 3.06
- VIDLFDEQGLSALHLAAQGRHSQT — higher, 2.91
- VIDLFDEQGLSALHLAAQGRHHQT — higher, 2.87
- VIDLFDEQGLSALHLAAQGRHEQT — higher, 3.61
- VIDLFDEQGLSALHLAAQGRHCQT — higher, 2.32
- VIDLFDEQGLSALHLAAQGRHGQT — higher, 2.73
- VIDLFDEQGLSALHLAAQGRHLQT — higher, 2.1
- VIDLFDEQGLSALHLAAQGRHRQT — higher, 3.13
- VIDLFDEQGLSALHLAAQGRHPQT — higher, 2.79
- VIDLFDEQGLSALHLAAQGRHKQT — higher, 3.17
- VIDLFDEQGLSALHLAAQGRHDQT — higher, 3.03
- VIDLFDEQGLSALHLAAQGRHQQT — higher, 3.15
- VIDLFDEQGLSALHLAAQGRHFQT — higher, 2.19
- VIDLFDEQGLSALHLAAQGRHNQT — higher, 3.09
- VIDLFDEQGLSALHLAAQGRHMQT — higher, 2.4
- VIDLFDEQGLSALHLAAQGRHIQT — higher, 2.14
- VIDLFDEQGLSALHLAAQGRHYQT — higher, 2.23
- VIDLFDEQGLSALHLAAQGRHTQT — higher, 3.03
- VIDLFDEQGLSALHLAAQGRHWQT — higher, 1.57
- VIDLFDEQGLSALHLAAQGRHVQT — higher, 2.42
- VIDLFDEQGLSALHLAASGRHAQT — higher, 2.64
- VIDLFDEQGLSALHLAALGRHAQT — higher, 1.85
- VIDLFDEQGLSALHLAAIGRHAQT — higher, 2.51
- VIDLFDEQGLSALHLAAKGRHAQT — higher, 2.17
- VIDLFDEQGLSALHLAAEGRHAQT — higher, 3.19
- VIDLFDEQGLSALHLAAFGRHAQT — higher, 2.01
- VIDLFDEQGLSALHLAACGRHAQT — higher, 2.3
- VIDLFDEQGLSALHLAAVGRHAQT — higher, 2.3
- VIDLFDEQGLSALHLAAGGRHAQT — higher, 2.9
- VIDLFDEQGLSALHLAATGRHAQT — higher, 2.36
- VIDLFDEQGLSALHLAADGRHAQT — higher, 3.42
- VIDLFDEQGLSALHLAARGRHAQT — higher, 3.06
- VIDLFDEQGLSALHLAAAGRHAQT — higher, 2.27
- VIDLFDEQGLSALHLAAHGRHAQT — higher, 2.18
- VIDLFDEQGLSALHLAAWGRHAQT — higher, 2.88
- VIDLFDEQGLSALHLAAMGRHAQT — higher, 2.15
- VIDLFDEQGLSALHLAANGRHAQT — higher, 2.88
- VIDLFDEQGLSALHLAAYGRHAQT — higher, 2.22
- VIDLFDEQGLSALHLAAPGRHAQT — higher, 2.82
